{"source": "paper PMC9746415", "about": "(Human Vaccines & Immunotherapeutics, 2022)", "format": "physicochemical", "conditions": "pH 7.4", "data": [{"substance": "In-house rituximab", "values": [{"measurement": "SEC-HPLC % mAb Monomer", "result": 99.2, "unit": "%"}]}]}
